The text below walks through data of the supplement of paper PMC9112550, “Optimization of the antimicrobial peptide Bac7 by deep mutational scanning” (BMC Biology, 2022).
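Note: peptides expressed intracellularly from a pBAD plasmid library in pooled LB shake-flask culture, induced with 0.3% L-arabinose, DNA abundance read by NGS, three biological replicates, DESeq2 with apeglm shrinkage.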

The data set has as its system Escherichia coli TOP10. Put plainly: shrunken log2 fold change of peptide-encoding DNA abundance (4.5 h post-induction vs induction); higher = less antimicrobial activity (less host growth inhibition). Particulars: time post-induction: 4.5 h; library: site-saturation at positions 5, 18, 19, 20.
As for RRIRARPPRLPRPRPRPWEHPRP, the “shrunken log2 fold change” value was -0.0255.
As to RRIRTRPPRLPRPRPRPLPQPRP, the “shrunken log2 fold change” value is 0.165.
In the case of RRIRHRPPRLPRPRPRPFVCPRP, the “shrunken log2 fold change” value was -0.453.
In the case of RRIRSRPPRLPRPRPRPPDNPRP, the “shrunken log2 fold change” value is -0.0697.
RRIRDRPPRLPRPRPRPQLGPRP: the “shrunken log2 fold change” value worked out at 0.0197.
RRIRLRPPRLPRPRPRPQEIPRP: the “shrunken log2 fold change” value was -0.0701.
Turning to RRIRTRPPRLPRPRPRPRGGPRP, the “shrunken log2 fold change” value was determined as 0.334.
Turning to RRIRIRPPRLPRPRPRPSAHPRP, the “shrunken log2 fold change” value is -0.202.
Under RRIRQRPPRLPRPRPRPKNTPRP stands -0.394.
In the case of RRIRCRPPRLPRPRPRPHEKPRP it was -0.277.
In the case of RRIRQRPPRLPRPRPRPQICPRP, the “shrunken log2 fold change” value is -0.229.
As for RRIRMRPPRLPRPRPRPSKVPRP, the “shrunken log2 fold change” value was determined as 0.167.
With RRIRIRPPRLPRPRPRPTCVPRP, the “shrunken log2 fold change” value turned out to be 0.00176.
Take RRIRYRPPRLPRPRPRPYSWPRP: the “shrunken log2 fold change” value is -0.156.
With RRIRTRPPRLPRPRPRPFRDPRP, the “shrunken log2 fold change” value is -0.205.
Take RRIRNRPPRLPRPRPRPAICPRP: the “shrunken log2 fold change” value was -0.0274.
In the case of RRIRSRPPRLPRPRPRPSSFPRP it was -0.356; in that of RRIRMRPPRLPRPRPRPPCMPRP, 0.181; in that of RRIRDRPPRLPRPRPRPGGYPRP, 0.101.
On to RRIRVRPPRLPRPRPRPKYTPRP, for which the “shrunken log2 fold change” value was -0.421.
Under RRIRIRPPRLPRPRPRPHHPPRP stands -0.629; under RRIRQRPPRLPRPRPRPDHQPRP, -0.126.
With RRIRTRPPRLPRPRPRPPHCPRP, the “shrunken log2 fold change” value is 0.474.
Regarding RRIRQRPPRLPRPRPRPPEQPRP, the “shrunken log2 fold change” value came to 0.00242.
Turning to RRIRGRPPRLPRPRPRPIQCPRP, the “shrunken log2 fold change” value amounted to 0.0816.
In the case of RRIRMRPPRLPRPRPRPFHHPRP it was -0.419.
Turning to RRIRARPPRLPRPRPRPIPDPRP, the “shrunken log2 fold change” value was 0.604.
Regarding RRIRERPPRLPRPRPRPPSSPRP, the “shrunken log2 fold change” value turned out to be 0.0527.
As for RRIRCRPPRLPRPRPRPIYEPRP, the “shrunken log2 fold change” value is -0.576.
In the case of RRIRCRPPRLPRPRPRPRCFPRP it was -0.158; in that of RRIRARPPRLPRPRPRPVCAPRP, 0.571.
With RRIRLRPPRLPRPRPRPCSLPRP, the “shrunken log2 fold change” value was 0.00822.
Regarding RRIRERPPRLPRPRPRPMAPPRP, the “shrunken log2 fold change” value was 1.59.
For the sequence RRIRTRPPRLPRPRPRPWMDPRP, the “shrunken log2 fold change” value was -0.13.
Consider RRIRLRPPRLPRPRPRPEVKPRP, for which the “shrunken log2 fold change” value is -0.108.
In the case of RRIRYRPPRLPRPRPRPSGLPRP, the “shrunken log2 fold change” value was -0.078.
As to RRIRHRPPRLPRPRPRPHSIPRP, the “shrunken log2 fold change” value is -0.318.
Regarding RRIRCRPPRLPRPRPRPVWIPRP, the “shrunken log2 fold change” value is -0.441.
In the case of RRIRCRPPRLPRPRPRPSEGPRP it was 0.141; in that of RRIRIRPPRLPRPRPRPFWPPRP, -0.056.
In the case of RRIRMRPPRLPRPRPRPRFTPRP, the “shrunken log2 fold change” value is 0.323.
Under RRIRIRPPRLPRPRPRPFNKPRP stands -0.179.
Consider RRIRPRPPRLPRPRPRPYTFPRP, for which the “shrunken log2 fold change” value is -0.504.
Turning to RRIRVRPPRLPRPRPRPWLRPRP, the “shrunken log2 fold change” value was -0.171.
As to RRIRSRPPRLPRPRPRPCWQPRP, the “shrunken log2 fold change” value is -0.00872.
In the case of RRIRTRPPRLPRPRPRPMGSPRP it was -0.0908; in that of RRIRSRPPRLPRPRPRPQELPRP, -0.107; in that of RRIRPRPPRLPRPRPRPCAGPRP, 0.122.
On to RRIRCRPPRLPRPRPRPGGAPRP, for which the “shrunken log2 fold change” value was 0.462.
Regarding RRIRCRPPRLPRPRPRPSHWPRP, the “shrunken log2 fold change” value is -0.204.
